Where two headings read alike, the source gives them in different places.
Key:
IL-23 M54A (human) [1] = biological target: IL-23 M54A (human) (UniProt P29460); experiment: cell-based or functional assay
IL-23 E112A (human) [2] = biological target: IL-23 E112A (human) (UniProt P29460); experiment: cell-based or functional assay
[3] = biological target: wild-type IL-23 (His-tagged p19 / non-tagged p40) (human) (UniProt P29460); experiment: cell-based or functional assay
IL-23 L116A (human) [4] = biological target: IL-23 L116A (human) (UniProt P29460); experiment: cell-based or functional assay
IL-23 H53A (human) [5] = biological target: IL-23 H53A (human) (UniProt P29460); experiment: cell-based or functional assay
IL-23 D118A (human) [6] = biological target: IL-23 D118A (human) (UniProt P29460); experiment: cell-based or functional assay
IL-23 D55A (human) [7] = biological target: IL-23 D55A (human) (UniProt P29460); experiment: cell-based or functional assay
IL-23 M54A (human) [8] = biological target: IL-23 M54A (human) (UniProt P29460); experiment: SPR Biacore, antibody captured on protein A, single alanine mutants of IL-23
IL-23 E112A (human) [9] = biological target: IL-23 E112A (human) (UniProt P29460); experiment: as above
IL-23 L116A (human) [10] = biological target: IL-23 L116A (human) (UniProt P29460); experiment: as above
IL-23 H53A (human) [11] = biological target: IL-23 H53A (human) (UniProt P29460); experiment: as above
IL-23 D118A (human) [12] = biological target: IL-23 D118A (human) (UniProt P29460); experiment: as above
IL-23 D55A (human) [13] = biological target: IL-23 D55A (human) (UniProt P29460); experiment: as above
[14] = biological target: IL-23 alanine shave mutant M5 (human) (UniProt P29460); experiment: SPR Biacore T100, antibody captured on protein A, purified IL-23 variant, 1:1 Langmuir
[15] = biological target: IL-23 alanine shave mutant M10 (human) (UniProt P29460); experiment: as above
[16] = biological target: IL-23 alanine shave mutant M9 (human) (UniProt P29460); experiment: as above
[17] = biological target: IL-23 alanine shave mutant M7 (human) (UniProt P29460); experiment: as above
[18] = biological target: IL-23 alanine shave mutant M10 (human) (UniProt P29460); experiment: cell-based or functional assay
[19] = biological target: IL-23 alanine shave mutant M9 (human) (UniProt P29460); experiment: cell-based or functional assay
[20] = biological target: wild-type IL-23 (His-tagged p19 / non-tagged p40) (human) (UniProt P29460); experiment: cell-based or functional assay; remark: listed apart in the source
[21] = biological target: IL-23 alanine shave mutant M7 (human) (UniProt P29460); experiment: cell-based or functional assay
[22] = biological target: IL-23 alanine shave mutant M5 (human) (UniProt P29460); experiment: cell-based or functional assay

Row | IC50, IL-23 variant-induced pSTAT3 in BaF3/huIL-23Ra/huIL-12Rb1 transfectants (IL-23 M54A (human) [1]) | IC50, IL-23 variant-induced pSTAT3 in BaF3/huIL-23Ra/huIL-12Rb1 transfectants (IL-23 E112A (human) [2]) | IC50, IL-23 variant-induced pSTAT3 in BaF3/huIL-23Ra/huIL-12Rb1 transfectants [3] | IC50, IL-23 variant-induced pSTAT3 in BaF3/huIL-23Ra/huIL-12Rb1 transfectants (IL-23 L116A (human) [4]) | IC50, IL-23 variant-induced pSTAT3 in BaF3/huIL-23Ra/huIL-12Rb1 transfectants (IL-23 H53A (human) [5]) | IC50, IL-23 variant-induced pSTAT3 in BaF3/huIL-23Ra/huIL-12Rb1 transfectants (IL-23 D118A (human) [6]) | IC50, IL-23 variant-induced pSTAT3 in BaF3/huIL-23Ra/huIL-12Rb1 transfectants (IL-23 D55A (human) [7]) | ΔΔG (IL-23 M54A (human) [8]) [kcal/mol] | ΔΔG (IL-23 E112A (human) [9]) [kcal/mol] | ΔΔG (IL-23 L116A (human) [10]) [kcal/mol] | ΔΔG (IL-23 H53A (human) [11]) [kcal/mol] | ΔΔG (IL-23 D118A (human) [12]) [kcal/mol] | ΔΔG (IL-23 D55A (human) [13]) [kcal/mol] | ΔΔG [14] [kcal/mol] | ΔΔG [15] [kcal/mol] | ΔΔG [16] [kcal/mol] | ΔΔG [17] [kcal/mol] | IC50, IL-23 variant-induced pSTAT3 in BaF3/huIL-23Ra/huIL-12Rb1 transfectants [18] [pM] | IC50, IL-23 variant-induced pSTAT3 in BaF3/huIL-23Ra/huIL-12Rb1 transfectants [19] [pM] | IC50, IL-23 variant-induced pSTAT3 in BaF3/huIL-23Ra/huIL-12Rb1 transfectants [20] [pM] | other results | Substance
1 | 0.27 nM | > 3 nM | 0.18 nM | 0.24 nM | 0.19 nM | 0.22 nM | 0.18 nM | 1 | 1.7 | 0.2 | 0 | -0.3 | 0.7 | 1.9 | 0.4 | 0.2 | 0.2 | 350 | 260 | 380 | IC50, IL-23 variant-induced pSTAT3 in BaF3/huIL-23Ra/huIL-12Rb1 transfectants [21]: 310 pM | Merck's IL-23 p19 mAb (7G10) (antibody)
2 | 81 pM | 33 pM | 67 pM | 54 pM | 78 pM | 52 pM | 77 pM | 0.3 | 0.3 | 0.5 | 0.3 | -0.3 | 0.5 | 0.1 | 0.3 | 0.1 | 0.1 | 71 | 67 | 79 | IC50, IL-23 variant-induced pSTAT3 in BaF3/huIL-23Ra/huIL-12Rb1 transfectants [22]: 62 pM; IC50, IL-23 variant-induced pSTAT3 in BaF3/huIL-23Ra/huIL-12Rb1 transfectants [21]: 59 pM | STELARA (ustekinumab, IL-12/IL-23 p40 mAb) (antibody)
